The record followed here is US20230212319A1, “NOVEL ANTIGEN BINDING DOMAINS AND SYNTHETIC ANTIGEN RECEPTORS INCORPORATING THE SAME” (University of Southern California, priority 2020, published 2023).

For one assay, the system named is RAJI cells. Kind of assay: JNG assay, co-culture with RAJI cells. The assay is classed as cell-based. The conditions noted are these: JNG cells expressing construct, co-culture with Raji. Summed up:
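Jurkat-NFAT-GFP (JNG) cells stably expressing SAR constructs via lentiviral transduction and puromycin/blasticidin selection were cocultured with target cells at E:T ~1:2 for ~4–18 h. NFAT-driven GFP was measured by FACS versus parental JNG cells; scores +/- to 5+ denote ~5–50% GFP-positive cells.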

For another assay, the system named is L363 cells. Kind of assay: JNG assay, co-culture with L363 cells. The assay is classed as cell-based. The settings on record: co-culture with L363. The procedure:
Cellular supernatant is collected and assayed for the induction of cytokines (e.g., IL2).
JNG (Jurkat cells expressing EGFP under an NFAT promoter) were infected with lentiviral vectors encoding different single chain and multi-chain SARs by spinfection in the presence of 8 µg/ml of Polybrene® (Sigma, Catalog no. H9268). The Jurkat-NFAT-GFP cells are engineered in such a way that the IL-2 promoter, which carries NFAT binding sites, is cloned upstream of the GFP gene. These cells have been used to study signaling via TCR and CAR. The different SARs were stably expressed in Jurkat NFAT-GFP cells by lentiviral mediated gene transfer, followed by selection with puromycin or blasticidin. No drug selection was used in case the construct lacked an antibiotic resistance gene. The SAR-expressing Jurkat-NFAT-GFP cells were cocultured with the target cells at E:T ratio of approximately 1:2 for approximately 4 hours to 18 hours. When the interaction between SIRs and their target antigen results in activation of the NFAT pathway, GFP expression is induced. […] GFP expression was monitored by FACS analysis. The Jurkat-NFAT-GFP (parental) cells were used as control. The structure of different constructs can be determined based on their names. […] The sequence of the other constructs in the table can be similarly determined from their names and by referring to the different Tables of this disclosure that provide the names and SEQ ID NO of the different modules. Alternatively, the composition and modular architecture of the different SAR constructs can be determined from their sequences by bioinformatics tools, including using nucleic acid and amino acids homology searches. A SAR is considered positive in the assay in case the SAR expressing Jurkat-NFAT-GFP cells show greater % GFP positive cells when cultured with the target cell line as compared to parental Jurkat-NFAT-GFP cells. […] In general, the number +/-, +, 2+, 3+, 4+, 5+ refer to approximately 5%, 10%, 20%, 30%, 40% and 50% GFP positive cells. The % of GFP induction in the above assay is dependent not only the relative strength of the SAR but also, among other factors, on the relative level of expression of the SAR in the JNG cells and the relative level of expression of the target antigen in the target cell line. To control for the difference in gene transduction efficiency of the different SAR constructs, the experiment was conducted with JNG cells transduced with SAR constructs co-expressing a drug resistance gene (e.g., puromycin or PAC) followed by drug selection to generate a stable population of SAR-expressing cells. It is to be noted that the drug resistance gene (e.g., PAC) in the SAR constructs is optional and in vivo studies were conducted with SAR constructs lacking the PAC gene.

B1: 22211 (protein)
chain: MALPVTALLLPLALLLHAARPDIQMTQSPSSLSASVGDRVTITCKASDHINNWLAWYQQKPGQAPKLLIYGATTLETGVPSRFSGSGSGTDYTLTISSLQPEDFATYYCQQSWNTPWTFGQGTKLEIKRLEDLKNVFPPEVAVFEPSEAEISHTQKATLVCLATGFYPDHVELSWWVNGKEVHSGVCTDPQPLKEQPALNDSRYCLSSRLRVSATFWQNPRNHFRCQVQFYGLSENDEWTQDRAKPVTQIVSAEAWGRADCGFTSESYQQGVLSATILYEILLGKATLYAVLVSALVLMAMVKRKDSRGRAKRSGSGATNFSLLKQAGDVEENPGPTSATMDWIWRILFLVGAATGAHSGPQLGPYELWELSHGSGGGGSGGGGSGGGGSFEQVQLQQPGAELVKPGASVKMSCKASGYAFSSYWINWMKQKPGQGLEWIGQIYPGDGDTNYNGKFKGRATLTADTSSSTAYMQLSSLTSEDSAVYFCARSITTVVGCAMDYWGQGTSVTVSSTRIQNPDPAVYQLRDSKSSDKSVCLFTDFDSQTNVSQSKDSDVYITDKCVLDMRSMDFKSNSAVAWSNKSDFACANAFNNSIIPEDTFFPSPESSCDVKLVEKSFETDTNLNFQNLSVIGFRILLLKVAGFNLLMTLRLWSSRAKRSGSGVKQTLNFDLLKLAGDVESNPGPSRGHMTEYKPTVRLATRDDVPRAVRTLAAAFADYPATRHTVDPDRHIERVTELQELFLTRVGLDIGKVWVADDGAAVAVWTTPESVEAGAVFAEIGPRMAELSGSRLAAQQQMEGLLAPHRPKEPAWFLATVGVSPDHQGKGLGSAVVLPGVEAAERAGVPAFLETSAPRNLPFYERLGFTVTADVEVPEGPRTWCMTRKPGA
For B1, in the assay with RAJI cells, the “NFAT-GFP ASSAY: Raji” value is 2+ (refer to approximately 5%, 10%, 20%, 30%, 40% and 50% GFP positive cells).

B2: 22214 (protein)
chain: MALPVTALLLPLALLLHAARPACPYINIYNAEPANPSEKNSPTQYAYGTGPQGIFGQPGYINEFDIQMTQSPSSLSASVGDRVTITCKASDHINNWLAWYQQKPGQAPKLLIYGATTLETGVPSRFSGSGSGTDYTLTISSLQPEDFATYYCQQSWNTPWTFGQGTKLEIKRLEDLKNVFPPEVAVFEPSKAEIAHTQKATLVCLATGFYPDHVELSWWVNGKEVHSGVCTDPQPLKEQPALNDSRYCLSSRLRVSATFWQNPRNHFRCQVQFYGLSENDEWTQDRAKPVTQIVSAEAWGRADCGITSASYHQGVLSATILYEILLGKATLYAVLVSALVLMAMVKRKDSRGRAKRSGSGATNFSLLKQAGDVEENPGPTSATMDWIWRILFLVGAATGAHSGPQVQLQESGGGLAQAGGSLRLSCAASGRTFSMGWFRQAPGKEREFVAAITYSGGSPYYASSVRGRFTISRDNAKNTVYLQMNSLKPEDTAVYYCAANPTYGSDWNAENWGQGTQVTVSSGSGGGGSGGGGSGGGGSFEQVQLQQPGAELVKPGASVKMSCKASGYAFSSYWINWMKQKPGQGLEWIGQIYPGDGDTNYNGKFKGRATLTADTSSSTAYMQLSSLTSEDSAVYFCARSITTVVGCAMDYWGQGTSVTVSSTRIQNPDPAVYQLRDSKSSDKSVCLFTDFDSQTNVSQSKDSDVYITDKCVLDMRSMDFKSNSAVAWSNKSDFACANAFNNSIIPEDTFFPSSDVPCDVKLVEKSFETDTNLNFQNLSVIGFRILLLKVAGFNLLMTLRLWSSRAKRSGSGVKQTLNFDLLKLAGDVESNPGPSRGHMTEYKPTVRLATRDDVPRAVRTLAAAFADYPATRHTVDPDRHIERVTELQELFLTRVGLDIGKVWVADDGAAVAVWTTPESVEAGAVFAEIGPRMAELSGSRLAAQQQMEGLLAPHRPKEPAWFLATVGVSPDHQGKGLGSAVVLPGVEAAERAGVPAFLETSAPRNLPFYERLGFTVTADVEVPEGPRTWCMTRKPGA
Turning to B2, the “NFAT-GFP ASSAY: Raji” value in the assay with RAJI cells was “Raji (+) (refer to approximately 5%, 10%, 20%, 30%, 40% and 50% GFP positive cells)”.

B3: 21994 (protein)
chain: MALPVTALLLPLALLLHAARPQVQLVESGGGLVQPGGSLRLSCAASGFTFTNHAMSWVRQAPGKGLELVSSISGNGRTTYYADSVKGRFTISRDISKNTLDLQMNSLRAEDTAVYYCAKDGGETLVDSRGQGTLVTVSSLEDLKNVFPPEVAVFEPSEAEISHTQKATLVCLATGFYPDHVELSWWVNGKEVHSGVCTDPQPLKEQPALNDSRYCLSSRLRVSATFWQNPRNHFRCQVQFYGLSENDEWTQDRAKPVTQIVSAEAWGRADCGFTSESYQQGVLSATILYEILLGKATLYAVLVSALVLMAMVKRKDSRGRAKRSGSGATNFSLLKQAGDVEENPGPTSMDWIWRILFLVGAATGAHSFEVQLLESGGGLVQPGGSLRLSCAASGFIFSSYAMSWVRQAPGKGQEWVSGVSGTGVNTYYADSVKGRFTISRDNSKNTLYLQMNSLRAEDTAVYYCASGKGWDSGSWYEDYRGQGTLVTVSSTRIQNPDPAVYQLRDSKSSDKSVCLFTDFDSQTNVSQSKDSDVYITDKCVLDMRSMDFKSNSAVAWSNKSDFACANAFNNSIIPEDTFFPSPESSCDVKLVEKSFETDTNLNFQNLSVIGFRILLLKVAGFNLLMTLRLWSSRAKRSGSGVKQTLNFDLLKLAGDVESNPGPSRGHMTEYKPTVRLATRDDVPRAVRTLAAAFADYPATRHTVDPDRHIERVTELQELFLTRVGLDIGKVWVADDGAAVAVWTTPESVEAGAVFAEIGPRMAELSGSRLAAQQQMEGLLAPHRPKEPAWFLATVGVSPDHQGKGLGSAVVLPGVEAAERAGVPAFLETSAPRNLPFYERLGFTVTADVEVPEGPRTWCMTRKPGA
On to B3, for which, in the assay with L363 cells, the “NFAT-GFP ASSAY: L363” value was “L363 (+) (refer to approximately 5%, 10%, 20%, 30%, 40% and 50% GFP positive cells)”.

B4: 22247 (protein)
chain: MALPVTALLLPLALLLHAARPACPQLGPYELWELSHGTGAVVRGAEFDIQMTQSPSSLSASVGDRVTITCKASDHINNWLAWYQQKPGQAPKLLIYGATTLETGVPSRFSGSGSGTDYTLTISSLQPEDFATYYCQQSWNTPWTFGQGTKLEIKRLEDLKNVFPPEVAVFEPSKAEIAHTQKATLVCLATGFYPDHVELSWWVNGKEVHSGVCTDPQPLKEQPALNDSRYCLSSRLRVSATFWQNPRNHFRCQVQFYGLSENDEWTQDRAKPVTQIVSAEAWGRADCGITSASYHQGVLSATILYEILLGKATLYAVLVSALVLMAMVKRKDSRGRAKRSGSGATNFSLLKQAGDVEENPGPTSATMDWIWRILFLVGAATGAHSGPQVQLQESGGGLAQAGGSLRLSCAASGRTFSMGWFRQAPGKEREFVAAITYSGGSPYYASSVRGRFTISRDNAKNTVYLQMNSLKPEDTAVYYCAANPTYGSDWNAENWGQGTQVTVSSGSGGGGSGGGGSGGGGSFEQVQLQQPGAELVKPGASVKMSCKASGYAFSSYWINWMKQKPGQGLEWIGQIYPGDGDTNYNGKFKGRATLTADTSSSTAYMQLSSLTSEDSAVYFCARSITTVVGCAMDYWGQGTSVTVSSTRIQNPDPAVYQLRDSKSSDKSVCLFTDFDSQTNVSQSKDSDVYITDKCVLDMRSMDFKSNSAVAWSNKSDFACANAFNNSIIPEDTFFPSSDVPCDVKLVEKSFETDTNLNFQNLSVIGFRILLLKVAGFNLLMTLRLWSSRAKRSGSGVKQTLNFDLLKLAGDVESNPGPSRGHMTEYKPTVRLATRDDVPRAVRTLAAAFADYPATRHTVDPDRHIERVTELQELFLTRVGLDIGKVWVADDGAAVAVWTTPESVEAGAVFAEIGPRMAELSGSRLAAQQQMEGLLAPHRPKEPAWFLATVGVSPDHQGKGLGSAVVLPGVEAAERAGVPAFLETSAPRNLPFYERLGFTVTADVEVPEGPRTWCMTRKPGA
As to B4, the “NFAT-GFP ASSAY: Raji” value in the assay on RAJI cells was “Raji (2+) (refer to approximately 5%, 10%, 20%, 30%, 40% and 50% GFP positive cells)”.

B5: 22248 (protein)
chain: MALPVTALLLPLALLLHAARPDIQMTQSPSSLSASVGDRVTITCKASDHINNWLAWYQQKPGQAPKLLIYGATTLETGVPSRFSGSGSGTDYTLTISSLQPEDFATYYCQQSWNTPWTFGQGTKLEIKRLEDLKNVFPPEVAVFEPSEAEISHTQKATLVCLATGFYPDHVELSWWVNGKEVHSGVCTDPQPLKEQPALNDSRYCLSSRLRVSATFWQNPRNHFRCQVQFYGLSENDEWTQDRAKPVTQIVSAEAWGRADCGFTSESYQQGVLSATILYEILLGKATLYAVLVSALVLMAMVKRKDSRGRAKRSGSGATNFSLLKQAGDVEENPGPTSATMDWIWRILFLVGAATGAHSGPQLGPYELWELSHGSGPLGIAGIFEQVQLQQPGAELVKPGASVKMSCKASGYAFSSYWINWMKQKPGQGLEWIGQIYPGDGDTNYNGKFKGRATLTADTSSSTAYMQLSSLTSEDSAVYFCARSITTVVGCAMDYWGQGTSVTVSSTRIQNPDPAVYQLRDSKSSDKSVCLFTDFDSQTNVSQSKDSDVYITDKCVLDMRSMDFKSNSAVAWSNKSDFACANAFNNSIIPEDTFFPSPESSCDVKLVEKSFETDTNLNFQNLSVIGFRILLLKVAGFNLLMTLRLWSSRAKRSGSGVKQTLNFDLLKLAGDVESNPGPSRGHMTEYKPTVRLATRDDVPRAVRTLAAAFADYPATRHTVDPDRHIERVTELQELFLTRVGLDIGKVWVADDGAAVAVWTTPESVEAGAVFAEIGPRMAELSGSRLAAQQQMEGLLAPHRPKEPAWFLATVGVSPDHQGKGLGSAVVLPGVEAAERAGVPAFLETSAPRNLPFYERLGFTVTADVEVPEGPRTWCMTRKPGA
Turning to B5, in the assay on RAJI cells, the “NFAT-GFP ASSAY: Raji” value was “Raji (3+) (refer to approximately 5%, 10%, 20%, 30%, 40% and 50% GFP positive cells)”.
